# Test results published in publication PMC8038991, “R-catcher, a potent molecular tool to unveil the arginylome” (Cellular and Molecular Life Sciences: CMLS, 2021).
# What was measured:
# GST-ZZ122-175^N132D = GST-ZZ122-175^N132D pulldown from HeLa lysates (MG132 plus TG); type: binding, human; details: HeLa lysate, immunoblot
# Description: Using these lysates and purified GST tagged ZZ122-175^N132D (Supplementary Fig. 4A) immobilized on glutathione resin, we performed pulldown assays. […] In addition to pulling down R-BiP and R-CRT, GST-ZZ122-175^N132D was able to capture polyubiquitinated proteins, which were also disrupted by the D129A mutation and RA dipeptide competition (Supplementary Fig. 4B). This was expected because arginylated proteins are known to be ubiquitinated by E3 ligases containing a UBR box leading to their proteasomal degradation.
# Fig. 4 ZZ122-175 ^N132D is capable of capturing known arginylated proteins in cells. a Western blot analysis to visualize arginylated BiP and CRT. […] N-terminally arginylated BiP and CRT were detected by immunoblotting using anti R-BiP and R-CRT antibodies. b GST pulldown assays to test the ability of wild type (WT) and N132D GST-ZZ in capturing cellular R-BiP and R-CRT. […] Pulled down R-BiP and R-CRT were detected using anti R-BiP and R-CRT antibodies. c Schematic drawing illustrating R-catcher. […] R-catcher bound arginylated proteins were detected by immunoblotting using anti-Myc or Flag antibody. e R-catcher pulldown assay to capture R-BiP and R-CRT induced in HeLa cells stimulated with MG132 plus TG in the absence or presence of 20 mM dipeptides TEXT PRINTED IN THE PICTURE: (C) R-catcher: ~ 9 kDa
# R-catcher = assay: Small-scale R-catcher pulldown of known arginylated proteins; type: binding, human; details: HeLa, MG132 plus TG, Fig. 4e
# Description: For small-scale R-catcher pull-down assays, 300 µg of purified R-catcher was conjugated with 120 µl of Strep-Tactin sepharose resin by incubating overnight at 4 °C. To test R-catcher’s ability to capture known arginylated proteins, such as R-BiP, R-PDI, R-nsP4 and R-RGS4, plasmids encoding Ub-X-(BiP, PDI and nsP4) or MX-RGS4 (X = Arg or Val) were transiently transfected into HEK293 cells. After 24 h, cells were treated with 10 µM MG132 and 100 nM thapsigargin for another 24 h. Cells were harvested and lysed in hypotonic buffer and 300 µg total protein was incubate with 25 µl R-catcher-sepharose resin in binding buffer (20 mM HEPES pH 7.9, 0.05% Tween 20, 10% glycerol, 0.2 M KCl, protease inhibitor and phosphatase inhibitor) for 3 h with gentle rotation at 4 °C. After three washes with binding buffer, bound proteins were dissociated with 2 × SDS sample buffer and boiling at 100 °C and subjected to immunoblotting using anti-myc or flag antibodies.
# [1] = system: HeLa cell extracts stimulated with MG132 plus TG; assay: Large-scale R-catcher pulldown coupled to silver staining and LC-MS/MS; parameters: species or system human; details: LC-MS/MS working list
# Description: For large-scale R-catcher pulldown assays, HeLa cells were treated with 5 µM MG132 and 100 nM thapsigargin for 24 h. Cells were lysed in hypotonic buffer and 10 mg total was incubated with 750 µl R-catcher-sepharose beads for 3 h at 4 °C after pre-clearing with D129A mutant R-catcher-sepharose beads for 3 h at 4 °C. After three washes with binding buffer, bound proteins were eluted with binding buffer containing 20 mM D-biotin. To remove R-catcher, the eluent was dialyzed using 20 kDa cut-off dialysis membrane in binding buffer containing 3.5 M MgCl2 overnight followed by another overnight dialysis in distilled-deionized water. The dialyzed eluent was lyophilized overnight and dried powder was dissolved in 100 µl LC/MS solubilizer for silver staining and mass spectrometry analysis.
# Protein samples solubilized in Invitrosol LC/MS solubilizer (Invitrogen) as following by manufacturer protocol. For removal of incompatible buffer components, protein samples filtrate with 10 K MW ultrafilter for complete digestion. […]
# Peptides were analyzed using a LC–MS/MS system consisting of an Easy nLC 1000 (Thermo Fisher scientific) and an Orbitrap Fusion Lumos mass spectrometer (Thermo Fisher Scientific) equipped with a nano-electrospray source (EASY-Spray Sources, Thermo Fisher Scientific). […]
# MS/MS spectra were analyzed using the following software analysis protocols with the Uniprot human DB (2019). […]
molecule,measurement,setting,value
R-CRT: Nt-arginylated CRT (protein) REPAVYFKEQFLDGDGWTSRWIESKHKSDFGKFVLSSGKFYGDEEKDKGLQTSQDARFYALSASFEPFSNKGQTLVVQFTVKHEQNIDCGGGYVKLFPNSLDQTDMHGDSEYNIMFGPDICGPGTKKVHVIFNYKGKNVLINKDIRCKDDEFTHLYTLIVRPDNTYEVKIDNSQVESGSLEDDWDFLPPKKIKDPDASKPEDWDERAKIDDPTDSKPEDWDKPEHIPDPDAKKPEDWDEEMDGEWEPPVIQNPEYKGEWKPRQIDNPDYKGTWIHPEIDNPEYSPDPSIYAYDNFGVLGLDLWQVKSGTIFDNFLITNDEAYAEEFGNETWGVTKAAEKQMKDKQDEEQRLKEEEEDKKRKEEEEAEDKEDDEDKDEDEEDEEDKEEDEEEDVPGQAKDEL,pulldown by GST-ZZ122-175^N132D,GST-ZZ122-175^N132D,efficiently pull down
"CRT: ER chaperone calreticulin, arginylated (protein) REPAVYFKEQFLDGDGWTSRWIESKHKSDFGKFVLSSGKFYGDEEKDKGLQTSQDARFYALSASFEPFSNKGQTLVVQFTVKHEQNIDCGGGYVKLFPNSLDQTDMHGDSEYNIMFGPDICGPGTKKVHVIFNYKGKNVLINKDIRCKDDEFTHLYTLIVRPDNTYEVKIDNSQVESGSLEDDWDFLPPKKIKDPDASKPEDWDERAKIDDPTDSKPEDWDKPEHIPDPDAKKPEDWDEEMDGEWEPPVIQNPEYKGEWKPRQIDNPDYKGTWIHPEIDNPEYSPDPSIYAYDNFGVLGLDLWQVKSGTIFDNFLITNDEAYAEEFGNETWGVTKAAEKQMKDKQDEEQRLKEEEEDKKRKEEEEAEDKEDDEDKDEDEEDEEDKEEDEEEDVPGQAKDEL","pulldown by R-catcher, endogenous",R-catcher,could pulldown
same,presence in R-catcher working list,[1],among the known arginylated proteins
